Measurements: patent US20220143024A1, “METHODS OF USING IMIPRIDONES” (Board of Regents, The University of Texas System, priority 2019, published 2022)

Experiments:
Assay in all cases: BioID-MS +ONC201
[1] = target: AFG3L2 (human) (UniProt Q9Y4W6)
[2] = target: NUDT1 (human) (UniProt P36639)
[3] = target: ACAD9 (human) (UniProt Q9H845)
[4] = target: COX5B (human) (UniProt P10606)
[5] = target: NDUFAF4 (human) (UniProt Q9P032)
[6] = target: ACAD10 (human) (UniProt Q6JQN1)
[7] = target: PRKCA (human) (UniProt P17252)
[8] = target: ACADVL (human) (UniProt P49748)
[9] = target: NDUFS2 (human) (UniProt O75306)
Chain of NDUFS2 (human) (O75306 34-463 limits assumed): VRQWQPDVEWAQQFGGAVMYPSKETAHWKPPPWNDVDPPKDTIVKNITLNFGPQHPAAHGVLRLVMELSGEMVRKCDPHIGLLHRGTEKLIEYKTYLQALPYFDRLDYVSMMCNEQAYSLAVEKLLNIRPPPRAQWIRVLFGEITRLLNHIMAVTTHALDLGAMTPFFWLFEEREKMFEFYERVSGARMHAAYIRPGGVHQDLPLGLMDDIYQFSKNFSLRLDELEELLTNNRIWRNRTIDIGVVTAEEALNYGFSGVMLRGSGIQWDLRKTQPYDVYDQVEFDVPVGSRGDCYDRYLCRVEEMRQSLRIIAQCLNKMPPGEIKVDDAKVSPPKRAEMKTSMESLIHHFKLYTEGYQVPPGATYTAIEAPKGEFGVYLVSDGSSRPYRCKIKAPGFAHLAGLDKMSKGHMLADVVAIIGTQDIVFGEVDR

[10] = target: K1AA0564 (human) (UniProt A3KMH1)
[11] = target: OGDH (human) (UniProt Q02218)
Chain of OGDH (human) (Q02218 41-1023 limits assumed): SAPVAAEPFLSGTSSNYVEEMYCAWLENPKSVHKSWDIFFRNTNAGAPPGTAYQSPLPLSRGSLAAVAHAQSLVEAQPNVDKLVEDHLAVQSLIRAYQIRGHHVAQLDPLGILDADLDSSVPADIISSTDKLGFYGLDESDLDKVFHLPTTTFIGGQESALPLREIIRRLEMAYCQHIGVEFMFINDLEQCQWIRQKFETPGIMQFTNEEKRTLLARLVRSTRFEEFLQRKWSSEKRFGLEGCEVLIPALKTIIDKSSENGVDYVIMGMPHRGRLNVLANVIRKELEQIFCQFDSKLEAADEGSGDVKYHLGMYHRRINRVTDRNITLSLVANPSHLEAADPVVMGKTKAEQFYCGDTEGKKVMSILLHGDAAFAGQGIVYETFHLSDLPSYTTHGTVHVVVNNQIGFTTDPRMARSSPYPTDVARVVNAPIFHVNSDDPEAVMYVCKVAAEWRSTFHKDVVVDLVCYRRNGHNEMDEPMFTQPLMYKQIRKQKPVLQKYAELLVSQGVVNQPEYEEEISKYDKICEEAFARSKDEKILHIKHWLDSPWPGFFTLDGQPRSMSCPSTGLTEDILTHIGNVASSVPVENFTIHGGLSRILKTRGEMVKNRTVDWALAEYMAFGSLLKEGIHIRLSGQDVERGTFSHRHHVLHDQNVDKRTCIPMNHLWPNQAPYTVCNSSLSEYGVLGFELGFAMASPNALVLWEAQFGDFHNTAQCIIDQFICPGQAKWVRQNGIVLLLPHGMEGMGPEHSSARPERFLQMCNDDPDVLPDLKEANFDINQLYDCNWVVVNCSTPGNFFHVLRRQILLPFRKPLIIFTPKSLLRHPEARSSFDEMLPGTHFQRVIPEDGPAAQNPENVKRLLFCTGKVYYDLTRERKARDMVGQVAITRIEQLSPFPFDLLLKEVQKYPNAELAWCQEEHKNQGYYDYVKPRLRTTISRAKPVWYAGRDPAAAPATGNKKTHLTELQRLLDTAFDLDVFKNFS

[12] = target: GATC (human) (UniProt O43716)
[13] = target: IDI1 (human) (UniProt Q13907)
[14] = target: PNPT1 (human) (UniProt Q8TCS8)
[15] = target: NDUFAF3 (human) (UniProt Q9BU61)
Chain of NDUFAF3 (human) (Q9BU61 whole entry): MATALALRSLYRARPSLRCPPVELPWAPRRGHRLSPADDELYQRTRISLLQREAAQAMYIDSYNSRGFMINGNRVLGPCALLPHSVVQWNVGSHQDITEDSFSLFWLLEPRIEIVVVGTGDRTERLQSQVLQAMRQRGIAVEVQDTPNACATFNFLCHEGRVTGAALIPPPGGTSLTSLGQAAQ

[16] = target: MRPS16 (human) (UniProt Q9Y3D3)
[17] = target: NMNAT3 (human) (UniProt Q96T66)
Chain of NMNAT3 (human) (Q96T66 whole entry): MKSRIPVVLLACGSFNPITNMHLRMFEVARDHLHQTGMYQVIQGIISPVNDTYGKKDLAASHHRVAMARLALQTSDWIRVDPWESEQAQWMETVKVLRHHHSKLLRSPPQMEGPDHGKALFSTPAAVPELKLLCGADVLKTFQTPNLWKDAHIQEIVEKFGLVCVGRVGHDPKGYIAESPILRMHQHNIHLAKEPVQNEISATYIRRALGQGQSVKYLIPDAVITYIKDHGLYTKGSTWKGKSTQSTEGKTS

[18] = target: NADKD1 (human) (UniProt Q4G0N4)
[19] = target: GRPEL1 (human) (UniProt Q9HAV7)
[20] = target: THNSL1 (human) (UniProt Q8IYQ7)
[21] = target: ACN9 (human) (UniProt Q9NRP4)
Chain of ACN9 (human) (Q9NRP4 31-125 limits assumed): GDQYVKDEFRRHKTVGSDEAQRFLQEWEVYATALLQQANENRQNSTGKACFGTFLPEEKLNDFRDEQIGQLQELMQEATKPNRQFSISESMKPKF

[22] = target: NDUFAF5 (human) (UniProt Q5TEU4)
[23] = target: ATPAF1 (human) (UniProt Q5TC12)
[24] = target: C20orf72 (human) (UniProt Q9BQP7)
[25] = target: SDHB (human) (UniProt P21912)
[26] = target: MRPS24 (human) (UniProt Q96EL2)
[27] = target: SFXN4 (human) (UniProt Q6P4A7)
[28] = target: MRPS23 (human) (UniProt Q9Y3D9)
[29] = target: PTPMT1 (human) (UniProt Q8WUK0)
Chain of PTPMT1 (human) (Q8WUK0 28-201 limits assumed): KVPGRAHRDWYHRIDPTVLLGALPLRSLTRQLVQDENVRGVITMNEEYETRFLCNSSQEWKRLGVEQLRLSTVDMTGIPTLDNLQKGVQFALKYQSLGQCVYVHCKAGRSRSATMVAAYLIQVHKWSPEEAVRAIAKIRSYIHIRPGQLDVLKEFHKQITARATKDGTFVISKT

[30] = target: HSPA1L (human) (UniProt P34931)
[31] = target: ACAA2 (human) (UniProt P42765)
[32] = target: ACSS1 (human) (UniProt Q9NUB1)
[33] = target: C20orf7 (human) (UniProt Q5TEU4)
[34] = target: CHCHD3 (human) (UniProt Q9NX63)
[35] = target: ZADH2 (human) (UniProt Q8N4Q0)
[36] = target: UQCRB (human) (UniProt P14927)
Chain of UQCRB (human) (P14927 2-111 limits assumed): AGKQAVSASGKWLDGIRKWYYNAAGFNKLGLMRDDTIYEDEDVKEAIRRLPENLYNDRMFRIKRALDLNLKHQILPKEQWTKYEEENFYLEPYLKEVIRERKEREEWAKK

[37] = target: METTL17 (human) (UniProt Q9H7H0)
[38] = target: LYRM7 (human) (UniProt Q5U5X0)
Chain of LYRM7 (human) (Q5U5X0 whole entry): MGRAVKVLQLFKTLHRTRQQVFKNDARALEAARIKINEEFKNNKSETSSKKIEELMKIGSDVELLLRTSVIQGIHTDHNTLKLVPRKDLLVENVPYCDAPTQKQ

[39] = target: SUPV3L1 (human) (UniProt Q8IYB8)
[40] = target: AK3 (human) (UniProt Q9UIJ7)
[41] = target: HSD17B8 (human) (UniProt Q92506)
Chain of HSD17B8 (human) (Q92506 whole entry): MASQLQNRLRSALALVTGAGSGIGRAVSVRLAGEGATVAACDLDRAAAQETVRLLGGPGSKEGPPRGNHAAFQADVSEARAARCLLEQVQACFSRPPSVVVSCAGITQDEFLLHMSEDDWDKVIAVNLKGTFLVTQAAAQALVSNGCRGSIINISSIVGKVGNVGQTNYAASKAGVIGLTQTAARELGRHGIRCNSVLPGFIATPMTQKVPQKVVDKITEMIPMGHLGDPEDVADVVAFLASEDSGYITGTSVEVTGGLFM

[42] = target: AIFM1 (human) (UniProt O95831)
[43] = target: MRPL14 (human) (UniProt Q6P1L8)
[44] = target: NDUFS4 (human) (UniProt O43181)
[45] = target: COX5A (human) (UniProt P20674)
[46] = target: NDUFA6 (human) (UniProt P56556)
Chain of NDUFA6 (human) (P56556 whole entry): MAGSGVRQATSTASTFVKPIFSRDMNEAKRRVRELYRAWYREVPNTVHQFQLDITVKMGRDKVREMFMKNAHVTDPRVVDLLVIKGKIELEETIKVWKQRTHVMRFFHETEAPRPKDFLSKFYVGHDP

[47] = target: SHMT2 (human) (UniProt P34897)
[48] = target: MRPS25 (human) (UniProt P82663)
[49] = target: PITRM1 (human) (UniProt Q5JRX3)
[50] = target: RNMTL1 (human) (UniProt Q9HC36)
Chain of RNMTL1 (human) (Q9HC36 41-420 limits assumed): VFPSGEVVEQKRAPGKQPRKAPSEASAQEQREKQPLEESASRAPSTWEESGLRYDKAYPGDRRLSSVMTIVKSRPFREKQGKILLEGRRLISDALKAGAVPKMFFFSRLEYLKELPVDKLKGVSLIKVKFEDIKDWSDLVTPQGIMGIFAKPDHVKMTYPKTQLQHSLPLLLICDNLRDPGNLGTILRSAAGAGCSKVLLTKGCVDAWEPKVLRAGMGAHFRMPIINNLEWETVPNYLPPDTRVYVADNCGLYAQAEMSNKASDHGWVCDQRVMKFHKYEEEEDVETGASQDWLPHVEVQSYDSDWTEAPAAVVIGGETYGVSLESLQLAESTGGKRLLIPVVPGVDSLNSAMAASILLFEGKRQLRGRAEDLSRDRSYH

[51] = target: ABCB10 (human) (UniProt Q9NRK6)
Chain of ABCB10 (human) (Q9NRK6 106-738 limits assumed): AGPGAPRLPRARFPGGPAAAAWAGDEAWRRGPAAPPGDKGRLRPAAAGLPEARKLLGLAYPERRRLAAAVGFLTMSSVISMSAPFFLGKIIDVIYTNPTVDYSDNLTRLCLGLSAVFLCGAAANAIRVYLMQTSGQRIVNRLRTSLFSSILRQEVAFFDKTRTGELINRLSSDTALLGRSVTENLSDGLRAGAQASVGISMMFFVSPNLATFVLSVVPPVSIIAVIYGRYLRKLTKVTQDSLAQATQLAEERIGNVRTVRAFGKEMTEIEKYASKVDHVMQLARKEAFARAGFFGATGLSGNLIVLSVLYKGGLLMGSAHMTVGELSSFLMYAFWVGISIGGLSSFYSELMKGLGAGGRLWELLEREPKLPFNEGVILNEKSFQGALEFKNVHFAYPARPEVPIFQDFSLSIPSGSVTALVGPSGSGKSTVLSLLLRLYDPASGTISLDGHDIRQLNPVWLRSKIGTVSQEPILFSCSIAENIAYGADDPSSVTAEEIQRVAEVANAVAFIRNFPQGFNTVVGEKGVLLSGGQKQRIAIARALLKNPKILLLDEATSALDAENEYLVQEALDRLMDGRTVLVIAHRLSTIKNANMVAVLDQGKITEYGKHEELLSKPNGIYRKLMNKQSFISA

Chain of ACAD10 (human) (Q6JQN1 whole entry): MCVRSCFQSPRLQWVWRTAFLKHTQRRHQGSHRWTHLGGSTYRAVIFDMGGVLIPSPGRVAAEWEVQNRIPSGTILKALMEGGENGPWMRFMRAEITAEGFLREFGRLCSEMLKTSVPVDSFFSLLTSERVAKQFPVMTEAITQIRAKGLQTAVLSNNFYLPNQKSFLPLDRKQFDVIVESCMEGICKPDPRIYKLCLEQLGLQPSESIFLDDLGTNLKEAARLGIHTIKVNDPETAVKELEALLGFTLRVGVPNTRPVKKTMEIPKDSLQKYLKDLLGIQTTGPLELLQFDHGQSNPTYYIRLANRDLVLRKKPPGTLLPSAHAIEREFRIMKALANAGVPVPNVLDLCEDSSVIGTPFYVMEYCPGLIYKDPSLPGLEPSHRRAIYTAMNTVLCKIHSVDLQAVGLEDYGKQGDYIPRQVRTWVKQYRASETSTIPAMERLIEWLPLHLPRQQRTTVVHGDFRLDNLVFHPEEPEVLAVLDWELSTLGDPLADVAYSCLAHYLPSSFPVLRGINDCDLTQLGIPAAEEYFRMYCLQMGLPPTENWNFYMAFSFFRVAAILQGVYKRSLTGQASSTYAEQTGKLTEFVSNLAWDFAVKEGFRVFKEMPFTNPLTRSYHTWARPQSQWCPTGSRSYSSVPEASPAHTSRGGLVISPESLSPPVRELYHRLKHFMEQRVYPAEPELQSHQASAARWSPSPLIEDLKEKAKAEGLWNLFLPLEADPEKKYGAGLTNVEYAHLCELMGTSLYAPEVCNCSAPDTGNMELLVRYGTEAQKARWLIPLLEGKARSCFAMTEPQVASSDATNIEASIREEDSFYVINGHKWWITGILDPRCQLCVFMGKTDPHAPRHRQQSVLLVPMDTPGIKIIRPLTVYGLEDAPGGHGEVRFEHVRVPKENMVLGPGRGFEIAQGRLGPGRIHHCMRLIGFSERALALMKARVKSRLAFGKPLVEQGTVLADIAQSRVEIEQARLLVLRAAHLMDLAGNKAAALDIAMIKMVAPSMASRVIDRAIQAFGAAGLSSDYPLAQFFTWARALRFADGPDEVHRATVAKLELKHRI
Chain of COX5B (human) (P10606 32-129 limits assumed): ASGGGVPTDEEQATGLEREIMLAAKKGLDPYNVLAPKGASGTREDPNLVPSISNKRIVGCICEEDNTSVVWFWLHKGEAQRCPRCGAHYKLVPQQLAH

Log2 Fold change (vs control) [1]: -0.14 log2
Log2 Fold change (vs control) [2]: -1 log2
Log2 Fold change (vs control) [3]: -0.76 log2
Log2 Fold change (vs control) [4]: -5 log2
Log2 Fold change (vs control) [5]: -1.11 log2
Log2 Fold change (vs control) [6]: -4.09 log2
Log2 Fold change (vs control) [7]: -3.58 log2
Log2 Fold change (vs control) [8]: 0.55 log2
Log2 Fold change (vs control) [9]: -2.44 log2
Log2 Fold change (vs control) [10]: -0.71 log2
Log2 Fold change (vs control) [11]: -3.7 log2
Log2 Fold change (vs control) [12]: -5.98 log2
Log2 Fold change (vs control) [13]: -0.22 log2
Log2 Fold change (vs control) [14]: 0.32 log2
Log2 Fold change (vs control) [15]: -0.73 log2
Log2 Fold change (vs control) [16]: -3.81 log2
Log2 Fold change (vs control) [17]: -4 log2
Log2 Fold change (vs control) [18]: -2.04 log2
Log2 Fold change (vs control) [19]: -5.52 log2
Log2 Fold change (vs control) [20]: -1.55 log2
Log2 Fold change (vs control) [21]: -5.46 log2
Log2 Fold change (vs control) [22]: -0.68 log2
Log2 Fold change (vs control) [23]: -2.17 log2
Log2 Fold change (vs control) [24]: -3.52 log2
Log2 Fold change (vs control) [25]: -0.82 log2
Log2 Fold change (vs control) [26]: -4.81 log2
Log2 Fold change (vs control) [27]: -0.58 log2
Log2 Fold change (vs control) [28]: -1.58 log2
Log2 Fold change (vs control) [29]: -0.48 log2
Log2 Fold change (vs control) [30]: 0.5 log2
Log2 Fold change (vs control) [31]: -0.88 log2
Log2 Fold change (vs control) [32]: -4.46 log2
Log2 Fold change (vs control) [33]: -1.21 log2
Log2 Fold change (vs control) [34]: -3.46 log2
Log2 Fold change (vs control) [35]: -3.46 log2
Log2 Fold change (vs control) [36]: -4.7 log2
Log2 Fold change (vs control) [37]: -3.58 log2
Log2 Fold change (vs control) [38]: -1.38 log2
Log2 Fold change (vs control) [39]: -0.12 log2
Log2 Fold change (vs control) [40]: -1.05 log2
Log2 Fold change (vs control) [41]: -1.26 log2
Log2 Fold change (vs control) [42]: -1.58 log2
Log2 Fold change (vs control) [43]: -3.46 log2
Log2 Fold change (vs control) [44]: -5.93 log2
Log2 Fold change (vs control) [45]: -2.87 log2
Log2 Fold change (vs control) [46]: -1.08 log2
Log2 Fold change (vs control) [47]: -0.51 log2
Log2 Fold change (vs control) [48]: -3.91 log2
Log2 Fold change (vs control) [49]: -4.25 log2
Log2 Fold change (vs control) [50]: 0.05 log2
Log2 Fold change (vs control) [51]: -0.24 log2
Substance: FlagBirA-ClpP (WT) (from UniProt P06709 1-321; Q16740 57-277) (enzyme)
